Experimental data: patent US20250270295A1

Molecular target: soluble gp34 wild type ectodomain, V5-His tagged (sgp34wt-V5-His) (HCMV strain AD169)
Assay: blocking of sgp34wt binding to immobilized human IgG, ELISA

Substance mouse IgG1 isotype antibody has an IC50 of 9.69 µg/mL.
